From the supplement of paper PMC12764529
± gives the half width of the 95% confidence interval.

Experiments:
[1] = folding stability dG unfold from trypsin proteolysis; higher = more stable
Procedure, shortened: (§1)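 Only designs with AlphaFold2 dimer inter-PAE above 15 were retained; each was a mini-protein under 80 residues with no cysteine, in a PA-tagged cDNA display construct. After digestion with trypsin and chymotrypsin and sequencing, K50 was inferred by Bayesian fitting of counts, and unfolding free energy was derived per protease or combined against a sequence-predicted unfolded-state K50 and a shared folded-state K50.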

[2] = folding stability dG unfold from chymotrypsin proteolysis; higher = more stable
Procedure, shortened: as §1

[3] = folding stability dG unfold (combined trypsin and chymotrypsin); higher = more stable
Procedure, shortened: as §1

Sequence	folding stability dG unfold [1] [kcal/mol]	folding stability dG unfold [2] [kcal/mol]	folding stability dG unfold [3] [kcal/mol]
SAGGSAMVRIEVELENGEKLEIEIEVPEEMTEEELLEKAKELAKELAEKLGIPEAKVKVVKIEVVPSAGGSA [r15_463_TrROS_Hall]	4.06 ± 0.16	2.92 ± 0.22	3.92 ± 0.23
SAGGSAMVVIRTTKPGGKVEVLAVNPEDGSKTVKTFSSSTSPKEVFEEVNKEFGGEVKVEKVELKASAGGSA [r15_544_TrMRF]	-0.439 ± 0.18	-0.912 ± 0.58	-0.512 ± 0.18
SAGGSAMVYLVTVTIKSEGKEVRYKEWVESDEPEKLIEKVKKEYPNEEIKVEITPFPSKEEAEKLLSAGGSA [r15_889_JUSTAS]	2.36 ± 0.098	2.48 ± 0.042	2.41 ± 0.096
SAGGSAMYKVEVTATTSSSSTPYPLEMDFETEEEAKERVKKYLEEKYGDPISSIETKIEPVEPGLESAGGSA [r15_670_JUSTAS]	-0.314 ± 0.21	-0.645 ± 0.57	-0.234 ± 0.36
SAGGSAMYYRFEIPRPDGVIEEIWIKMTPEEAKALVEALEADPNVASVKVEAITEEEARKLGIFENSAGGSA [r15_39_JUSTAS]	4.17 ± 0.28	4.46 ± 0.12	4.34 ± 0.18
SAGGSANGYFILIKIEEIKLTKMRRDPDGKQWQWNFSVKIKIEVVKVFRIKPDPNGNWKIEPGDPISAGGSA [r15_162_TrROS]	3.01 ± 0.11	3.33 ± 0.053	3.25 ± 0.12
SAGGSANNWKPIGEFPFRHPDGWRVTVPIWRDPGEGNIKINVKYQGPNGPPSKQMKEWAKKLLDEISAGGSA [r15_529_TrROS]	0.936 ± 0.15	0.654 ± 0.32	0.866 ± 0.31
SAGGSANPNGKPWVEVEVSFMIPIDDEDIADALGGPPKPGDWLMITVKIRVYPDGNVEIDINLHPMSAGGSA [r15_91_TrROS]	3.96 ± 0.14	3.88 ± 0.22	3.95 ± 0.19
SAGGSANWYIKITIEYPNGREWEIPFPFKSVEDVKDQIKNAAREYFPNLPPEDVKIDDIELYPLDDSAGGSA [r15_220_TrROS]	1.3 ± 0.056	2.01 ± 0.04	1.83 ± 0.097
SAGGSAPARIVLPGGRTRTLRLSEISPELLAAFPDVLVRLPGGEVRRLPADTLLSLEGDYTLVVPGSAGGSA [r15_733_TrMRF]	-0.262 ± 0.18	0.573 ± 0.12	0.335 ± 0.099
SAGGSAPDWKIVDIEPTDNSITITVEAPPGVRVMIFNPGNGKVQHRPFPPGDTITIPPRMYIMVWVSAGGSA [r15_418_TrROS]	2.43 ± 0.032	3.121 ± 0.03	2.84 ± 0.081
SAGGSAPEALVFVERREDDSLTVVVLFPDGTLVTRRVEVRDEGVTVETETAPVLVIPEPGRLELALSAGGSA [r15_746_TrMRF]	0.595 ± 0.029	1.39 ± 0.046	1.14 ± 0.051
SAGGSAPEPIRFYFWWPGKIIEITIPPDEIEKVEIKPDNGDIDITVKLPGEEVEISITPGAIHVQTSAGGSA [r15_598_TrROS]	1.56 ± 0.11	2.57 ± 0.032	2.29 ± 0.17
SAGGSAPFPIKISTIRYPDGYIRMEIWIPPDAPIKIKFPNGFEMEVEPVPNGYYRITMYFRIPKEDSAGGSA [r15_523_TrROS]	3.77 ± 0.094	4.79 ± 0.11	4.53 ± 0.15
SAGGSAPGEPIFIRWKIEHPNGNPWTIPFPIKTEEQALEQAIRFAESIAKKLGNPNVKIKIDEIIPSAGGSA [r15_698_TrROS]	1.11 ± 0.12	0.575 ± 0.44	0.914 ± 0.21
SAGGSAPGWYPITYEFEDNNKEIKIEVYYPKEDPMVGVDIEDPDGKVIFTIWFPADNAEKALKEILSAGGSA [r15_940_TrROS]	1.23 ± 0.07	1.49 ± 0.071	1.39 ± 0.092

Sequence	folding stability dG unfold [1] [kcal/mol]	folding stability dG unfold [2] [kcal/mol]	folding stability dG unfold [3] [kcal/mol]
SAGGSAPKEGTIWIMIPVRYERDPNGKVKPISAEQIADLFQELGFPIKIDEIFDSPGYIMIRIKVKSAGGSA [r15_225_TrROS]	2.5 ± 0.075	3.204 ± 0.032	3.04 ± 0.16
SAGGSAPLPPGAVVEIVEVRFDPETRRIEMVVKVYDANGELVATLRVELEFDPETNELTLRVELLPSAGGSA [r15_1028_TrROS_Hall]	3.41 ± 0.24	4.5 ± 0.18	4.23 ± 0.14
SAGGSAPMFEIWFRDPEAIEKLLEESGFPVSIERFPNDPNWVKITIFMKGPMEEAQDKLREALGLESAGGSA [r15_118_TrROS]	2.29 ± 0.04	2.95 ± 0.014	2.74 ± 0.036
SAGGSAPPEWRTIMIPMKPDDVDNAIEELRNELPPGRNINIHLQDPEPGRYFMITIRGNKIEIHFMSAGGSA [r15_257_TrROS]	2.1 ± 0.17	2.12 ± 0.21	2.29 ± 0.17
SAGGSAPPNWRRIEITFYIPPGQPTVSELADHIAKRIGFPVTGVEIDKVERNPDGAYEVKVSIIVPSAGGSA [r15_654_TrROS]	2.69 ± 0.056	2.9 ± 0.054	2.75 ± 0.15
SAGGSAPREIPIMIRVPGYQIEIHKITVPPNGMVQIGLEWRNPGGDKPVTINIWLPLNEIKDFIKASAGGSA [r15_56_TrROS]	1.83 ± 0.042	3.1 ± 0.042	2.54 ± 0.14
SAGGSAPSISYTDPNITTITVNPPYITTTRPDGTTTVYKVNNGGDITKLKTTPPVPPAAATDASVASAGGSA [r15_393_JUSTAS]	-0.17 ± 0.071	0.421 ± 0.13	0.148 ± 0.16
SAGGSAPSPEVPLWRFEAPGASGGVALIEGYPGGELRVVFFTDDGRPVELTFPVVVLPPAPLEELFSAGGSA [r15_478_TrMRF]	1.51 ± 0.039	1.24 ± 0.086	1.38 ± 0.075
SAGGSAPSSGNVLEIKVEKLPDGTLVGTLTVKDPNSSNTTTIEITIPSSKTPEEAEAELKKIVEEASAGGSA [r15_181_JUSTAS]	2.11 ± 0.068	2.09 ± 0.025	2.11 ± 0.057
SAGGSAPSVFPFKAKFKDYDLEIKSITVYENGEVEINAIAYNPDGKKKVELNITLPYSEILDLLKSSAGGSA [r15_56_TrMRF]	2.35 ± 0.059	2.68 ± 0.037	2.55 ± 0.094
SAGGSAPVVVVVTPKNGKPIKLKFKFTKKEEAEAAVEEIKKALPKNTKVEAFYVDEEVVKEDKEYLSAGGSA [r15_469_TrMRF]	1.16 ± 0.017	1.97 ± 0.068	1.71 ± 0.054
SAGGSARVVILPDGYLLVEVDGKPFLFGPNDEVEIEEEGDELILRLRLRDKDGKEVGEFPFRFRLESAGGSA [r15_424_TrMRF]	2.71 ± 0.039	3.026 ± 0.016	2.9 ± 0.055
SAGGSASAEEAARAFVAAHPDRALVEVEIERSFIPEKGVEVVTLTVTLAFPDGSRRVVPVTVTRPRSAGGSA [r15_266_JUSTAS]	1.11 ± 0.044	1.06 ± 0.044	1.13 ± 0.071
SAGGSASIEIPVGDKPVRIEILSLEPEGERVRARAVVYFPDDPEYREISGDLTLEELIDAILEAIGSAGGSA [r15_944_TrMRF]	1.3 ± 0.016	1.148 ± 0.011	1.21 ± 0.074
SAGGSASIGEELAKELFPDLPLKVEPKEVPLEDGKTETVVTATFPDGKKVTITFEGDKIVEVTEVESAGGSA [r15_417_JUSTAS]	0.445 ± 0.095	0.994 ± 0.074	0.718 ± 0.11
